Reference: publication PMC10591475

Target: protein fusion 1, SpyCatcher03 fused to supercharged green fluorescent protein, conjugated with polymer surfactant ([SC3-scGFP][S])
Assay: SDS-PAGE of covalent (isopeptide) SpyCatcher-SpyTag coupling; 10 uM of each protein mixed in 20 mM Tris-HCl, 700 mM NaCl, pH 7.5, 37 °C, monitored over 24 h, in triplicate; product estimated from the pixel intensity of the bands (GelAnalyzer)

Row | Substance | percent of coupling product formed after 15 s [%] | yield of coupling product after 24 h [%]
1 | protein fusion 2, fibronectin-binding protein CshA fused to mCherry with SpyTag03 on the C-terminus (CshA-mCh-ST3) | 40 | 80
2 | protein fusion 3, mCherry fused to SpyTag03 (mCh-ST3) | 60 | 60
